# Experimental data published in the supplement of paper PMC7877785.
# ± gives the uncertainty stated by the source.
# Experiment: self-splicing fitness, log relative to wild type (ln ratio); higher = more splicing; Tetrahymena group I intron in knt gene, E. coli kanamycin selection, DiMSum; sequences stand for … in CUCUCU…GGAGGGAAAAGUUAUCAGGCAUGCACCUGGUAGCUAGUCUUUAAACCAAUAGAUUGCAUCGGUUUAAAAGGCAAGACCGUCAAAUUGCGGGAAAGGGGUCAACAGCCGUUCAGUACCAAGUCUCAGGGGAAACUUUGAGAUGGCCUUGCAAAGGGUAUGGUAAUAAGCUGACGGACAUGGUCCUAACCACGCAGCCAAGUCCUAAGUCAACAGAUCUUCUGUUGAUAUGGAUGCAGUUCACAGACUAAAUGUCGGUCGGGGAAGAUGUAUUCUUCUCAUAAGAUAUAGUCGGACCUCUCCUUAAUGGGAGCUAGCGGAUGAAGUGAUGCAACACUGGAGCCGCUGGGAACUAAUUUGUAUGCGAAAGUAUAUUGAUUAGUUUUGGAGUACUCGUGGUCG
# Procedure, shortened: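 Fitness was computed with DiMSum as the error-weighted combination of replicate fold changes, kanamycin versus none, each normalised to wild type. The library randomised all eight intron nucleotides of the P1ex region, with the intron placed in the knt kanamycin-resistance gene on pET-22b(+) in E. coli BL21(DE3). Six replicate transformations were grown overnight at 37°C or 30°C on LB agar with or without 25 μg/mL kanamycin, plus 100 μg/mL carbenicillin, 50 μM IPTG and 0.2% rhamnose. Pooled colonies were amplicon-sequenced on an Illumina HiSeq 2500.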
Sequence,self-splicing fitness (ln) (30 °C),self-splicing fitness (ln) (37 °C)
UACCAGCAAUAUUACGAAAG,-1.95 ± 0.15,-1.28 ± 0.15
ACCUAGCAAUAUUACGCUAG,-3.86 ± 0.25,-2.79 ± 0.28
GCCGAGCAAUAUUACGGUGU,-2.57 ± 0.11,-0.986 ± 0.11
CUCGAGCAAUAUUACGGAUA,-2.79 ± 0.28,-3.68 ± 0.46
CAUUAGCAAUAUUACGGUAA,-2.31 ± 0.14,-2.26 ± 0.14
GUUGAGCAAUAUUACGAACU,–,-1.61 ± 0.27
GCGUAGCAAUAUUACGCCUA,-1.76 ± 0.45,-1.07 ± 0.35
AGUGAGCAAUAUUACGGUUG,-3.38 ± 0.27,-1.92 ± 0.24
CCUCAGCAAUAUUACGACAG,-1.06 ± 0.066,-0.262 ± 0.079
UUCGAGCAAUAUUACGCUGG,-0.924 ± 0.28,-1.02 ± 0.42
CCGGAGCAAUAUUACGCAUG,-1.66 ± 0.14,0.0371 ± 0.22
UACUAGCAAUAUUACGUGGC,-2.44 ± 0.18,-2.91 ± 0.28
GUUGAGCAAUAUUACGAGUC,-3.09 ± 0.28,-0.0995 ± 0.16
CCACAGCAAUAUUACGAUGG,-4.02 ± 0.14,-2.5 ± 0.13
GGGUAGCAAUAUUACGAUUG,-1.63 ± 0.23,-2.13 ± 0.25
GCUAAGCAAUAUUACGUUGG,-3.67 ± 0.15,-1.79 ± 0.12
GUGCAGCAAUAUUACGCUUA,-0.938 ± 0.092,0.781 ± 0.15
CGCUAGCAAUAUUACGCUGU,–,-2.3 ± 0.19
GAUCAGCAAUAUUACGAUGU,-0.363 ± 0.062,0.0452 ± 0.077
CGGGAGCAAUAUUACGGCUA,-2.44 ± 0.39,–
AUCCAGCAAUAUUACGCGAA,-0.821 ± 0.054,-0.468 ± 0.07
UGUUAGCAAUAUUACGUGCG,-1.23 ± 0.11,-0.303 ± 0.14
